Experimental data: patent US20250352661A1 (MYTHIC THERAPEUTICS, published 2025)

T1: Human LRRC15 Protein, His Tag (Acro Biosystems) (human, UniProt Q8TF66 22-538, limits assumed)
T1 construct: Bought protein with His tag
T1 sequence (looked up): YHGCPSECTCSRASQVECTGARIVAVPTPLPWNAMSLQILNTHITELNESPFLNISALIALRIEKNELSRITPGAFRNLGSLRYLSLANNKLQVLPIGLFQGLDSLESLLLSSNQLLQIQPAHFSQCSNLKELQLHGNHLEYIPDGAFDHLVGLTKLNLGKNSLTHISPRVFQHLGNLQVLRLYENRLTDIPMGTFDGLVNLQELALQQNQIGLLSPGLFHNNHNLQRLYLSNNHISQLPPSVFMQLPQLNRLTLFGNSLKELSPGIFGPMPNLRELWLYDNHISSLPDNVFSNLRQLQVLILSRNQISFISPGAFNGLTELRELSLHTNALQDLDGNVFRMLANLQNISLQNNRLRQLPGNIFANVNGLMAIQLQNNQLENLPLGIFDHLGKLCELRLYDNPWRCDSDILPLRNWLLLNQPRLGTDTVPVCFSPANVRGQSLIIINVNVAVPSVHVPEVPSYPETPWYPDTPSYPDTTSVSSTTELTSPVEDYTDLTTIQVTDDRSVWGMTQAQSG

T2: Human LRRC15 Protein, His Tag (Acro Biosystems) (human, UniProt Q8TF66 22-538, limits assumed)
T2 construct: not shown: His tag
T2 sequence (looked up): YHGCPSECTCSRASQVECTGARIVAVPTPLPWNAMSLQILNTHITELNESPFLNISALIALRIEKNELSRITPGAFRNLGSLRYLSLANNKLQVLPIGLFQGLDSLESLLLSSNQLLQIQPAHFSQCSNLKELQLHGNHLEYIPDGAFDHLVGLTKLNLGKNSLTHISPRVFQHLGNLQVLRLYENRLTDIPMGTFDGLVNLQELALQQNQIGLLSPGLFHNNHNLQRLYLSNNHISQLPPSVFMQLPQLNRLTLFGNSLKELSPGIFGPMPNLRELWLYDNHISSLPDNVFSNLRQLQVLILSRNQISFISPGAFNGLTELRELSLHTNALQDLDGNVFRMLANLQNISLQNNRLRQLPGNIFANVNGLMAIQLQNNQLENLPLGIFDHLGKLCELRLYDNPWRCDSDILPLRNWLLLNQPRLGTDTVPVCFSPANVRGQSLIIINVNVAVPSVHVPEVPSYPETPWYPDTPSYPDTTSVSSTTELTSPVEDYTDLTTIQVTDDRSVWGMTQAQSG


biological target: T1, Human LRRC15 Protein, His Tag (Acro …); test: BLI; dissociation pH 7.4 black, pH 5.4 grey [D00008 FIG. 1F]
Text: For each individual plot, antigen binding proteins were captured on anti-human Fc biosensors and associated with LRRC15 at pH 7.4. Dissociation was at pH 7.4 (black) or pH 5.4 (grey). Major X-axis ticks=100 seconds, with left dashed vertical line=0 seconds. Major Y-axis ticks=0.5 nm and octet plots are shown MYT5712 and MYT6080-MYT6121.
Multiple LRRC15-binding monoclonal antibodies have been described in the literature and can be used as a template for engineering pH-dependent binding. We selected discovery RabMAb clone 15G7 (rabbit VH SEQ ID NO: 378, rabbit VL SEQ ID NO: 451; humanized VH SEQ ID NO: 382, humanized VL SEQ ID NO: 455) as a LRRC15-binding monoclonal antibody for pH-engineering via histidine scanning. […] To generate pH-dependent sequence variants, individual amino acid residues within the heavy chain CDRs were systematically substituted with a histidine (or alanine if H was already present in a given position; e.g., MYT6099), one at a time (rabbit, MYT6080-6121). Desirable mutations were transferred to a humanized framework (humanized, MYT 8387-8411). After allowing for four days of protein expression, cell culture supernatants were collected, quantified by SDS-PAGE analysis, and the pH dependence of the variant was evaluated using biolayer interferometry (BLI) on an Octet RED 96e instrument. Briefly, cell culture supernatants were diluted based on qualitative expression level of the variant determined by visual examination of SDS-PAGE gels, 5 μL of cell culture supernatant was diluted into 195 μL of 1×PBST, pH 7.4 for high expressors, 25 μL of cell culture supernatant was diluted into 175 μL of 1×PBST, pH 7.4 for medium expressors and 100 μL of cell culture supernatant was diluted into 100 μL of 1×PBST, pH 7.4 for low expressors for loading onto the sensor tips.

binding result | Binder
binds | MYT6122 (antibody, V domains shown, rabbit 15G7 VL Q24H; chimeric, human constant regions) VH: QEQLEESGGDLVKPGASLTLTCTASGLDFRRTNYICWVRQAPGKGLEWIGCIYIADVVHYYASWAKGRFTFSKTSSTTVTLQMTSLTAADTATYFCARGADGGFVYGMDLWGPGTLVTVSS VL: DVVMTQTPASVSEPVGGTVTIKCHASQSIGNYLSWYQQKPGQRPKRLIYSASTLPSGVPSRFKGAGSGTEFTLTISDLESADAATYYCQNNYWLAGYGHPFGGGTEVVVK
binds | MYT6131 (antibody, V domains shown, rabbit 15G7 VL L33H; chimeric, human constant regions) VH: QEQLEESGGDLVKPGASLTLTCTASGLDFRRTNYICWVRQAPGKGLEWIGCIYIADVVHYYASWAKGRFTFSKTSSTTVTLQMTSLTAADTATYFCARGADGGFVYGMDLWGPGTLVTVSS VL: DVVMTQTPASVSEPVGGTVTIKCQASQSIGNYHSWYQQKPGQRPKRLIYSASTLPSGVPSRFKGAGSGTEFTLTISDLESADAATYYCQNNYWLAGYGHPFGGGTEVVVK
binds | MYT6130 (antibody, V domains shown, rabbit 15G7 VL Y32H; chimeric, human constant regions) VH: QEQLEESGGDLVKPGASLTLTCTASGLDFRRTNYICWVRQAPGKGLEWIGCIYIADVVHYYASWAKGRFTFSKTSSTTVTLQMTSLTAADTATYFCARGADGGFVYGMDLWGPGTLVTVSS VL: DVVMTQTPASVSEPVGGTVTIKCQASQSIGNHLSWYQQKPGQRPKRLIYSASTLPSGVPSRFKGAGSGTEFTLTISDLESADAATYYCQNNYWLAGYGHPFGGGTEVVVK
binds | MYT6127 (antibody, V domains shown, rabbit 15G7 VL I29H; chimeric, human constant regions) VH: QEQLEESGGDLVKPGASLTLTCTASGLDFRRTNYICWVRQAPGKGLEWIGCIYIADVVHYYASWAKGRFTFSKTSSTTVTLQMTSLTAADTATYFCARGADGGFVYGMDLWGPGTLVTVSS VL: DVVMTQTPASVSEPVGGTVTIKCQASQSHGNYLSWYQQKPGQRPKRLIYSASTLPSGVPSRFKGAGSGTEFTLTISDLESADAATYYCQNNYWLAGYGHPFGGGTEVVVK
binds | MYT6125 (antibody, V domains shown, rabbit 15G7 VL Q27H; chimeric, human constant regions) VH: QEQLEESGGDLVKPGASLTLTCTASGLDFRRTNYICWVRQAPGKGLEWIGCIYIADVVHYYASWAKGRFTFSKTSSTTVTLQMTSLTAADTATYFCARGADGGFVYGMDLWGPGTLVTVSS VL: DVVMTQTPASVSEPVGGTVTIKCQASHSIGNYLSWYQQKPGQRPKRLIYSASTLPSGVPSRFKGAGSGTEFTLTISDLESADAATYYCQNNYWLAGYGHPFGGGTEVVVK
binds | MYT6124 (antibody, V domains shown, rabbit 15G7 VL S26H; chimeric, human constant regions) VH: QEQLEESGGDLVKPGASLTLTCTASGLDFRRTNYICWVRQAPGKGLEWIGCIYIADVVHYYASWAKGRFTFSKTSSTTVTLQMTSLTAADTATYFCARGADGGFVYGMDLWGPGTLVTVSS VL: DVVMTQTPASVSEPVGGTVTIKCQAHQSIGNYLSWYQQKPGQRPKRLIYSASTLPSGVPSRFKGAGSGTEFTLTISDLESADAATYYCQNNYWLAGYGHPFGGGTEVVVK
binds | MYT6126 (antibody, V domains shown, rabbit 15G7 VL S28H; chimeric, human constant regions) VH: QEQLEESGGDLVKPGASLTLTCTASGLDFRRTNYICWVRQAPGKGLEWIGCIYIADVVHYYASWAKGRFTFSKTSSTTVTLQMTSLTAADTATYFCARGADGGFVYGMDLWGPGTLVTVSS VL: DVVMTQTPASVSEPVGGTVTIKCQASQHIGNYLSWYQQKPGQRPKRLIYSASTLPSGVPSRFKGAGSGTEFTLTISDLESADAATYYCQNNYWLAGYGHPFGGGTEVVVK
binds | MYT6123 (antibody, V domains shown, rabbit 15G7 VL A25H; chimeric, human constant regions) VH: QEQLEESGGDLVKPGASLTLTCTASGLDFRRTNYICWVRQAPGKGLEWIGCIYIADVVHYYASWAKGRFTFSKTSSTTVTLQMTSLTAADTATYFCARGADGGFVYGMDLWGPGTLVTVSS VL: DVVMTQTPASVSEPVGGTVTIKCQHSQSIGNYLSWYQQKPGQRPKRLIYSASTLPSGVPSRFKGAGSGTEFTLTISDLESADAATYYCQNNYWLAGYGHPFGGGTEVVVK
binds | MYT6129 (antibody, V domains shown, rabbit 15G7 VL N31H; chimeric, human constant regions) VH: QEQLEESGGDLVKPGASLTLTCTASGLDFRRTNYICWVRQAPGKGLEWIGCIYIADVVHYYASWAKGRFTFSKTSSTTVTLQMTSLTAADTATYFCARGADGGFVYGMDLWGPGTLVTVSS VL: DVVMTQTPASVSEPVGGTVTIKCQASQSIGHYLSWYQQKPGQRPKRLIYSASTLPSGVPSRFKGAGSGTEFTLTISDLESADAATYYCQNNYWLAGYGHPFGGGTEVVVK
binds | MYT6128 (antibody, V domains shown, rabbit 15G7 VL G30H; chimeric, human constant regions) VH: QEQLEESGGDLVKPGASLTLTCTASGLDFRRTNYICWVRQAPGKGLEWIGCIYIADVVHYYASWAKGRFTFSKTSSTTVTLQMTSLTAADTATYFCARGADGGFVYGMDLWGPGTLVTVSS VL: DVVMTQTPASVSEPVGGTVTIKCQASQSIHNYLSWYQQKPGQRPKRLIYSASTLPSGVPSRFKGAGSGTEFTLTISDLESADAATYYCQNNYWLAGYGHPFGGGTEVVVK
binds | MYT6132 (antibody, V domains shown, rabbit 15G7 VL S34H; chimeric, human constant regions) VH: QEQLEESGGDLVKPGASLTLTCTASGLDFRRTNYICWVRQAPGKGLEWIGCIYIADVVHYYASWAKGRFTFSKTSSTTVTLQMTSLTAADTATYFCARGADGGFVYGMDLWGPGTLVTVSS VL: DVVMTQTPASVSEPVGGTVTIKCQASQSIGNYLHWYQQKPGQRPKRLIYSASTLPSGVPSRFKGAGSGTEFTLTISDLESADAATYYCQNNYWLAGYGHPFGGGTEVVVK
binds | MYT6133 (antibody, V domains shown, rabbit 15G7 VL S50H; chimeric, human constant regions) VH: QEQLEESGGDLVKPGASLTLTCTASGLDFRRTNYICWVRQAPGKGLEWIGCIYIADVVHYYASWAKGRFTFSKTSSTTVTLQMTSLTAADTATYFCARGADGGFVYGMDLWGPGTLVTVSS VL: DVVMTQTPASVSEPVGGTVTIKCQASQSIGNYLSWYQQKPGQRPKRLIYHASTLPSGVPSRFKGAGSGTEFTLTISDLESADAATYYCQNNYWLAGYGHPFGGGTEVVVK

biological target: T2, Human LRRC15 Protein, His Tag (Acro …); test: BLI; dissociation pH 7.4 black, pH 5.4 grey [D00016 FIG. 3B]

binding result | Binder
binds | MYT7954 (antibody, V domains shown, also called 24D9 VL A99H) VH: QQQLVESGGGLVKPGASLTLTCKASGFSFSGSYWICWVRQAPGKGLEWIGCINGGSLDITYYASWAKGRFTISKASSTTVTLQKTSLTAADTATYFCASDTSYTAYGNFYFNLWGPGTLVTVSS VL: AQVLTQTASPVSAAVGGTVTINCQSSQSVLNNNWLAWYQQKPGQPPKLLIYDASSLASGVPSRFKGSGSGTQFTLTISDLESDDAATYYCQGEFSCGSHDCNAFGGGTEVVVKG
no binding (tested: 50 nM LRRC15) | MYT7957 (antibody, V domains shown, tested as culture supernatant; also called 24D9 VL N102H) VH: QQQLVESGGGLVKPGASLTLTCKASGFSFSGSYWICWVRQAPGKGLEWIGCINGGSLDITYYASWAKGRFTISKASSTTVTLQKTSLTAADTATYFCASDTSYTAYGNFYFNLWGPGTLVTVSS VL: AQVLTQTASPVSAAVGGTVTINCQSSQSVLNNNWLAWYQQKPGQPPKLLIYDASSLASGVPSRFKGSGSGTQFTLTISDLESDDAATYYCQGEFSCGSADCHAFGGGTEVVVKG
no binding (tested: 50 nM LRRC15) | MYT7958 (antibody, V domains shown, tested as culture supernatant; also called 24D9 VL A103H) VH: QQQLVESGGGLVKPGASLTLTCKASGFSFSGSYWICWVRQAPGKGLEWIGCINGGSLDITYYASWAKGRFTISKASSTTVTLQKTSLTAADTATYFCASDTSYTAYGNFYFNLWGPGTLVTVSS VL: AQVLTQTASPVSAAVGGTVTINCQSSQSVLNNNWLAWYQQKPGQPPKLLIYDASSLASGVPSRFKGSGSGTQFTLTISDLESDDAATYYCQGEFSCGSADCNHFGGGTEVVVKG
no binding (tested: 50 nM LRRC15) | MYT7955 (antibody, V domains shown, tested as culture supernatant; also called 24D9 VL D100H) VH: QQQLVESGGGLVKPGASLTLTCKASGFSFSGSYWICWVRQAPGKGLEWIGCINGGSLDITYYASWAKGRFTISKASSTTVTLQKTSLTAADTATYFCASDTSYTAYGNFYFNLWGPGTLVTVSS VL: AQVLTQTASPVSAAVGGTVTINCQSSQSVLNNNWLAWYQQKPGQPPKLLIYDASSLASGVPSRFKGSGSGTQFTLTISDLESDDAATYYCQGEFSCGSAHCNAFGGGTEVVVKG
